These results are taken from the nanobody polyreactivity screen of Harvey et al. (2022).

A short description of this data set: yeast display, Sf9 membrane polyspecificity reagent, FACS + sequencing; frameworks hold sequencing errors. In short, it runs like this:
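Nanobodies came from a synthetic yeast display library in Saccharomyces cerevisiae BJ5465, induced with galactose for 36–48 hours and stained for 1 hour at 4 °C with 10% biotinylated, detergent-solubilized Sf9 membrane reagent. Cells were enriched on streptavidin microbeads and then FACS-sorted, with low and high (top ~1%) gates set on anti-HA fluorescence for expression and streptavidin fluorescence for reagent binding. Each polyreactivity label reflects the gate a clone came from. Genes were amplified by colony PCR, sequenced by MiSeq 2 × 250 and filtered by CDR length.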
For the sequence “QVQLVESGGGLVQAGGSLRLSCAASGSIFSYYAMGWYRQEPGKERELVAAITWSGTRTYYADSVKGRFTISRDNAKNTVYLQMISLKPEDTAVYYCATEYDYWDDSYDSWGLGTQVTVSS”, the “polyreactivity (PSR sort gate)” value is listed as “low polyreactivity”.

On to “QVQLVESGGGLVQAGGSLRLSCAASGSIFSYYGMGWYRQAPGKERELVAAITDGDGTNYADSVKGRFTISRDNAKNTVYLQMNSLKPEDTAVYYCARDDRDIRGESGREGFLYDYWGQGTQVTVSS”, for which the “polyreactivity (PSR sort gate)” value is “low polyreactivity”.

As to “QVQLVESGGGLVQAGGSLRLSCAASGSIFSYYTMGWYRQAPGKERELVAAITRGGRTSYADSVKGRFTISRDNAKNTVYLQMNSLKPEDTAVYYCAADYWYFTHQLSTYGDNYWGQGTQVTVSS”, the “polyreactivity (PSR sort gate)” value is reported as “low polyreactivity”.

“QVQLVESGGGLVQAGGSLRLSCAASGSIFTDNAMGWYRQAPGKERALVAAISWIGDSTDYADSVKGRFTISRDNAKNTVYLQMNSLKPDDTAVYFCAADAKVVSPLYRANDIGMYYWGQGTQVTVSS”: the “polyreactivity (PSR sort gate)” value is on record as “low polyreactivity”.

As for “QVQLVESGGGLVQAGGSLRLSCAASGSIFTDNAMGWYRQAPGKERELVAAITGRGGNTYYADSVKGRFTISRDNAKNTVYLQMNSLKPEDTAVYYCAARIFRTRKPLGYWGQGTQVTVSS”, the “polyreactivity (PSR sort gate)” value is “high polyreactivity”.

Take “QVQLVESGGGLVQAGGSLRLSCAASGSIFTENDMGWYRQAPGKEREMVAAIDWDGGRTYYADSVKGRFTISRDNAKNTVYLQMNSLKPEDTAVYYCNKGRYWSNYFYWPSTHVYWGQGTQVTVSS”: the “polyreactivity (PSR sort gate)” value is reported as “high polyreactivity”.

In the case of “QVQLVESGGGLVQAGGSLRLSCAASGSIFTFNAMGWYRQAPGKERELVASINWSGGSTYYADSVKGRFTISRDNAKNTVYLQMNSLKPEDTAVYYCNKRRNGYGSQFYYPYDYWGQGTQVTVSS”, the “polyreactivity (PSR sort gate)” value is “low polyreactivity”.

“QVQLVESGGGLVQAGGSLRLSCAASGSIFTFNAMGWYRQAPGKERELVATISRRTGSTYYADSVKGRFTISRDNAKNTVYLQMNSLKPEDTAVYYCAARRRVYWYNHYNYWGQGTQVTVSS”: the “polyreactivity (PSR sort gate)” value is reported as “high polyreactivity”.

On to “QVQLVESGGGLVQAGGSLRLSCAASGSIFTFYAMGWYIQAPGKERELVAAISSGGDTYYADSVKGRFTISRDNAKNTVYLQKNILKPEDTAVYYCAADWRGSYLYGYYYWGQGTQVTVSS”, for which the “polyreactivity (PSR sort gate)” value is reported as “low polyreactivity”.

Turning to “QVQLVESGGGLVQAGGSLRLSCAASGSIFTFYAMGWYRQAPGKERELVATITWSGGSTFYADSVKGRFTISRDNAKNTVYLQMNSLKPEDTAVYYCAAYRVDYSDAYYYWGQGTQVTVSS”, the “polyreactivity (PSR sort gate)” value was “low polyreactivity”.

With “QVQLVESGGGLVQAGGSLRLSCAASGSIFTGYAMGWSRQAPGKEREMLAAISWSGGSTSYADSVKGRFTISRDNAKNTVYLQMNSLKPEDTAVYYCSTDVRQGSGWRYYYWGQGTQVTVSS”, the “polyreactivity (PSR sort gate)” value is on record as “high polyreactivity”.

“QVQLVESGGGLVQAGGSLRLSCAASGSIFTGYAMGWYRQAPGKERELVAAITYGSGRTYYADSVKGRFTISRDNAKNTLYLQMNSLKPEDTAVYYCAAKWSPYYYYIGYDYWGQGTQVTVSS”: the “polyreactivity (PSR sort gate)” value is “low polyreactivity”.

As to “QVQLVESGGGLVQAGGSLRLSCAASGSIFTGYAMGWYRQAPGKERELVARITKRGGSTYYADSVKGRFTISRDNAKNTVYLQMNSLKPEDTAVFYCNADRKFPYGSYETHDYWGQGTQVTVSS”, the “polyreactivity (PSR sort gate)” value was “high polyreactivity”.

As for “QVQLVESGGGLVQAGGSLRLSCAASGSIFTHNAMGWYRQAPGKERELVAAISTSGGRTYYADSVKGRFTISRDNAKNTVYLQMNSLKPEDTAVYYCAKLSTARYDYWGQGTQVTVSS”, the “polyreactivity (PSR sort gate)” value is “high polyreactivity”.

As for “QVQLVESGGGLVQAGGSLRLSCAASGSIFTHNDMGWYRQAPGQERELVAAISSGGSTNYADSVTGRFTISRDNAKNTVYLQMNSLIPVETAVYYCAKSIDGWYWRRRRYDYWGQGTQVTVSS”, the “polyreactivity (PSR sort gate)” value is reported as “low polyreactivity”.

Turning to “QVQLVESGGGLVQAGGSLRLSCAASGSIFTKYAMGWYIQAPGKEREFVAAITLSGGSTYYADSVKGRFTISRDNAKNTVYLQMNSLKPEDTAVYYCNAAYTYVTAWYYYWGQGTQVTVSS”, the “polyreactivity (PSR sort gate)” value is on record as “high polyreactivity”.

“QVQLVESGGGLVQAGGSLRLSCAASGSIFTKYAMGWYRQAPGKERELVAAINARGGSTYYADSVKGRFTISRDNAKNTVYLQMNSLKPEDTAVYYCAARYGVGRADYYWGQGTQVTVSS”: the “polyreactivity (PSR sort gate)” value was “high polyreactivity”.

Regarding “QVQLVESGGGLVQAGGSLRLSCAASGSIFTLYAMGWYRQAPGKERELVAAITRSGGSTYYADSVKGRFTISRDNAKNTVYLQMNSLKPEDTAVYYCAADKAPYSTEGDYWGQGTQVTVSS”, the “polyreactivity (PSR sort gate)” value is recorded as “high polyreactivity”.

Take “QVQLVESGGGLVQAGGSLRLSCAASGSIFTLYSMGWYRQAPGKERELVATINWSGGSTSYADSVKGRFTISRDNAKYTVYLQMNSLKADDTAVYYCAADYYFWHGTGYDYWGQGTQVNVSS”: the “polyreactivity (PSR sort gate)” value was “low polyreactivity”.

Consider “QVQLVESGGGLVQAGGSLRLSCAASGSIFTNYAMGWYRQAPGKERELVAAISVGGGRTYYADSVKGRFTISRDNAKNTVYLQMNSLKPEDTAVYYCAASRRTRSMNYWGQGTQVTVSS”, for which the “polyreactivity (PSR sort gate)” value is given as “high polyreactivity”.

As for “QVQLVESGGGLVQAGGSLRLSCAASGSIFTNYPMGCYRQAPGKERELVAAISQSGDTTYYADSVKGRFTISRDNAKNTVYLQMNSLKPEDSSVYYCAAQYYRWFYYWGQGTQVTVSS”, the “polyreactivity (PSR sort gate)” value is given as “high polyreactivity”.

For “QVQLVESGGGLVQAGGSLRLSCAASGSIFTPYAMGWSRQAPGKLRELVADISRSGSTNYADSVKGRFTISRDNAKNTVYLQMNSLKPEDTAVYYCNADFWWHWGTSYVYWGQGTQVTVSS”, the “polyreactivity (PSR sort gate)” value was “high polyreactivity”.

Take “QVQLVESGGGLVQAGGSLRLSCAASGSIFTPYAMGWYRQAPGKEREFVADIDDSGGGTYADSVKGRFTISRDNAKNTVYLQMNSLKPEDTAVYYCNADTGIWDYRFVDRDYWGQGTQVTVSW”: the “polyreactivity (PSR sort gate)” value was “low polyreactivity”.

On to “QVQLVESGGGLVQAGGSLRLSCAASGSIFTPYAMGWYRQAPGKERELVAGIRSSGGRTYYADSVKGRFTISRDNAKNTVYLQMNSLKPEDTAVYYCAARVGGIYRNDYWGQGTQVTVSS”, for which the “polyreactivity (PSR sort gate)” value is on record as “low polyreactivity”.

Turning to “QVQLVESGGGLVQAGGSLRLSCAASGSIFTQNAMGWYRQAPGKERELVAAITSTGGSTYYADSVKGRFTISRDNAKNTVYLQMNSLKPEDTAVYYCNADGFRRAALHDYWGQGTQVTVSS”, the “polyreactivity (PSR sort gate)” value was “high polyreactivity”.

With “QVQLVESGGGLVQAGGSLRLSCAASGSIFTQYAMGWYRQAPGKEREFVARITGSGGRTYYADSVKGRFTISRDNAKNTVYLQMNSLKPEDTAVYYCAARDVRPYYVKPPVRYYYWGQGTQVTVSS”, the “polyreactivity (PSR sort gate)” value is on record as “high polyreactivity”.

For the sequence “QVQLVESGGGLVQAGGSLRLSCAASGSIFTQYAMGWYRQAPGKERELVARITGSGGRTYYADSVKGRFTISRDNAKNTVYLQMNSLKPEDTAVYYCAARDVRPYYVKPPVRYYYWGQGTQVTVSS”, the “polyreactivity (PSR sort gate)” value is “high polyreactivity”.

In the case of “QVQLVESGGGLVQAGGSLRLSCAASGSIFTQYTMGWYRQAPGKERELVAAISRSGGRTYYADSVKGRFTISRDNSKNTVYLQMKSLKPEDTAVYYCAAEYTDKYEYWGQGTQVTVSS”, the “polyreactivity (PSR sort gate)” value is “high polyreactivity”.

Consider “QVQLVESGGGLVQAGGSLRLSCAASGSIFTRNAMGWYRQAPGKERELVASISYSGGNTYYADSVKGRFTISRDNAKNTVYLQMNSLKPEDTAVYYCNARRWFYLLYGYDYWGQGTQVTVSS”, for which the “polyreactivity (PSR sort gate)” value is on record as “high polyreactivity”.

Turning to “QVQLVESGGGLVQAGGSLRLSCAASGSIFTRYVMGWYRQARGKERELVASISGRGSSTYYADSVKGRFTISRDNAKNTVYLQMNSLKPEDTAVYYCAAEIVVFYSEGQRNTFYYWGQGTQVTVSS”, the “polyreactivity (PSR sort gate)” value is recorded as “high polyreactivity”.

With “QVQLVESGGGLVQAGGSLRLSCAASGSIFTSNAMGWYRQAPGKERELVAVISRRGGSTYYADSVKGRFTISRDNAKNTVYLQMNSLKPEDTAVYYCARRPYSYTRYEYWGQGTQVTVSS”, the “polyreactivity (PSR sort gate)” value is recorded as “low polyreactivity”.

In the case of “QVQLVESGGGLVQAGGSLRLSCAASGSIFTSYAMVWYRQAPGKERELVAAITSGGSTYYAHSVKGRFTISRDNAKKTVYLLMNSLKPEDTAVYYCAALQVRTSKLHMGYWGQGTQVTVSS”, the “polyreactivity (PSR sort gate)” value was “low polyreactivity”.

With “QVQLVESGGGLVQAGGSLRLSCAASGSIFTTYAMGWSRQAPGKERELVAAITTSGGRTYYADSVKGRFTISRDNAKNTVYLQMNSLKPDDTAVYYCNAVRGGRYGLDYWGQGTQVTVSS”, the “polyreactivity (PSR sort gate)” value is listed as “high polyreactivity”.

On to “QVQLVESGGGLVQAGGSLRLSCAASGSIFTVNAMGWYIQAPGIERELVAAIDGSSGSTNYADSVKGRFTISRDIAKNTVYLQMNSLKPEDTAVYYCAADWSYEYGYWGQGTQVTVSS”, for which the “polyreactivity (PSR sort gate)” value is on record as “low polyreactivity”.

On to “QVQLVESGGGLVQAGGSLRLSCAASGSIFTVNAMGWYRQAPGKEMEFVAAITGGGTSTYYADSVKGRFTISRDNAKNTVYLQMNSLTPEVTAVYYCAATTYHYSPTYGYWGQGTQVTVSS”, for which the “polyreactivity (PSR sort gate)” value is “low polyreactivity”.

Regarding “QVQLVESGGGLVQAGGSLRLSCAASGSIFTVNAMGWYRQAPGKERELVAAISDSGGSTYYADSVKGRFTISRDNAKNTVYLQMISLKPEDTAVYYCAVEIYYFVYGISYDYWGQGTQVTVSS”, the “polyreactivity (PSR sort gate)” value was “high polyreactivity”.

Regarding “QVQLVESGGGLVQAGGSLRLSCAASGSIFTVYAMGWYRQAPGKERELVAAINWSDGDTYYADSVKGRFTISRDNAKNTVYLQMNSLKPEDTAVYYCAAEGIYLILWYGYVEYDYWGQGTQVTVSS”, the “polyreactivity (PSR sort gate)” value is “low polyreactivity”.

In the case of “QVQLVESGGGLVQAGGSLRLSCAASGSIFTVYAMGWYRQAPGKESELVASIRFSSGRTYYADSVKGRFTISRDNAKNTVYLQMNSLKQEDTAVYYCASETVSWYRYYYWGQGTQVTVSS”, the “polyreactivity (PSR sort gate)” value is listed as “high polyreactivity”.

Consider “QVQLVESGGGLVQAGGSLRLSCAASGSIFTVYDMGWYRQAPGKERELVAAIDSSGGSTYYADSVKGRFTISRDNAKNTVYLQMNSLKPEDTAVYYCAADGDTTSPTYYIFWSGEFDYWGQGTQVTVSS”, for which the “polyreactivity (PSR sort gate)” value was “low polyreactivity”.

Consider “QVQLVESGGGLVQAGGSLRLSCAASGSIFTYNAMGWYRQAPGKERELVAAISWSGGSRYYADSVKGRFTISRDNAKNTVYLQMNSLKPVDTAVYYCAAALQYRLYFYPKYDYWGQGTQVTVSS”, for which the “polyreactivity (PSR sort gate)” value is on record as “high polyreactivity”.
